This is an account of results in patent publication US20140255406A1.

Assay [1] addresses human non-cleavable membrane bound TNFα on CHO cells (human) (UniProt P01375). Put plainly: cell-based or functional assay.
The next assay concerns the target human TNFα (human) (UniProt P01375). Put plainly: cell-based or functional assay.

human TNFα (human), sequence (P01375 77-233 limits assumed): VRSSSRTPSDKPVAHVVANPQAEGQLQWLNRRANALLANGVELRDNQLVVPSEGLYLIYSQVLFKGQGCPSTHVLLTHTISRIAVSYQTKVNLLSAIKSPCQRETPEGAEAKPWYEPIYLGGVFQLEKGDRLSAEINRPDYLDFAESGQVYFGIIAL
human non-cleavable membrane bound TNFα on CHO cells (human), sequence (P01375 whole entry): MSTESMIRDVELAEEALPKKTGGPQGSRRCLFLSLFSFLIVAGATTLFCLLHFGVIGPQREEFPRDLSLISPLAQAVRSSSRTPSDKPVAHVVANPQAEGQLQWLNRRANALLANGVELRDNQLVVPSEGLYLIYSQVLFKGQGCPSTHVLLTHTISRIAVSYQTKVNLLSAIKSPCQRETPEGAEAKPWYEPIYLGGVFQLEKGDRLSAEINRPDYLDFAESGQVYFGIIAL

On to adalimumab with IgG4 isotype (antibody), for which the IC50, inhibition of killing of L929 cells by human non-cleavable membrane bound TNFα CHO cells (MTT) in assay [1] was 669 pM. In the assay with human TNFα (human), this substance had an Average % inhibition of human TNFα-induced CXCL1 production in vivo (mouse plasma) of 89.4% and an IC50, inhibition of TNFα-induced killing of L929 cells (MTT) of 243 pM.
